Laboratory results reported in patent publication US20180194839A1 (Novartis, published 2018).
Substitutions are numbered along the chain they refer to. Numbers in names are those of the source.

T1: recombinant human IL-17F (SEQ ID NO: 77) (human, UniProt Q96PD4 31-163)
T1 construct: homodimer; also called huIL-17F; rhuIL-17F
T1 sequence: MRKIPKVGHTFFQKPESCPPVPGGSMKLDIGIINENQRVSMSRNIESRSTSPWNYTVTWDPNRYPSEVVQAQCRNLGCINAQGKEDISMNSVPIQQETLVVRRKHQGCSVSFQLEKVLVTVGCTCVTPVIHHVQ

T2: recombinant mouse IL-17F (R&D Systems Cat#2057-IL/CF) (mouse, UniProt Q7TNI7 29-161)
T2 construct: also called mIL-17F
T2 sequence (looked up): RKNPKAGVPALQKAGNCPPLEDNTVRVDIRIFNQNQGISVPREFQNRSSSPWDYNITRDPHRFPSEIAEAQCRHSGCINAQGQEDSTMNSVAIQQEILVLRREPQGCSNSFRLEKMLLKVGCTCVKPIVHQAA

T3: recombinant human IL-3 (R&D Systems Cat#203-IL/CF) (human, UniProt P08700 20-152)
T3 construct: also called huIL-3
T3 sequence (looked up): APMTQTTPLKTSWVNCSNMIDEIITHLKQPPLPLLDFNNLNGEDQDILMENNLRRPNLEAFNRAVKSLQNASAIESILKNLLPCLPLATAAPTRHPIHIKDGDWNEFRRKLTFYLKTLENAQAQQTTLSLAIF

T4: recombinant human IL-12 (R&D Systems Cat#219-IL-005/CF) (human, UniProt P29459 23-219; P29460 23-328)
T4 construct: also called huIL-12
T4 sequence (looked up) 1: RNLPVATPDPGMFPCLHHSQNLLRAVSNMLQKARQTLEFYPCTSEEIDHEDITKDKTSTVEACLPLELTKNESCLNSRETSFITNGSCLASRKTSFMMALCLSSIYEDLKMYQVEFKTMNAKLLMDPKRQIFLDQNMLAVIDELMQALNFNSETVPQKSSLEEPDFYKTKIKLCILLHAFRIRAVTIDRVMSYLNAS
T4 sequence (looked up) 2: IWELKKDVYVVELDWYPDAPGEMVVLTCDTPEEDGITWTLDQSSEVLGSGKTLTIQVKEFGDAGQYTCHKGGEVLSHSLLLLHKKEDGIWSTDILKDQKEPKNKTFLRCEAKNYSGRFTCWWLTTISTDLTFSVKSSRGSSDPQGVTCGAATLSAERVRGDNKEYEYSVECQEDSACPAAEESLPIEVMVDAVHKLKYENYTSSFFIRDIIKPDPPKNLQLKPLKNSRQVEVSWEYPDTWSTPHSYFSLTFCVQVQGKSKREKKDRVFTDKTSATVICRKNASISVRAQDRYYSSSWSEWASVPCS

T5: recombinant mouse IL-12 (R&D Systems Cat#419-ML-010/CF) (mouse, UniProt P43431 23-215; P43432 23-335)
T5 construct: coated at 0.5 µg/ml; also called mIL-12
T5 sequence (looked up) 1: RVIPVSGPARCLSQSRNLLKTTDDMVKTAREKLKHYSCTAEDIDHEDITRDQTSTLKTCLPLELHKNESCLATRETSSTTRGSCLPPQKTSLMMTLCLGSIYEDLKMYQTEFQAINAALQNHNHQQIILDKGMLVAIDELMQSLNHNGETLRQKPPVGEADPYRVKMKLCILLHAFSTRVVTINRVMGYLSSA
T5 sequence (looked up) 2: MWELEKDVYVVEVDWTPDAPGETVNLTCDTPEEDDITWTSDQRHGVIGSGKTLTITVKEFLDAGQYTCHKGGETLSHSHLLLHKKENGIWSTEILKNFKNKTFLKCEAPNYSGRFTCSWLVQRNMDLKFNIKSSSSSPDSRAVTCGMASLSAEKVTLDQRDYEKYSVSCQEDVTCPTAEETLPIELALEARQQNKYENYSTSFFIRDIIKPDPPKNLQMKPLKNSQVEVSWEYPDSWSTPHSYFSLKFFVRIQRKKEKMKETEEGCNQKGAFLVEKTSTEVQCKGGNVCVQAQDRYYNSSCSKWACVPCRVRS

T6: recombinant human IL-23 (R&D Systems Cat#1290-IL-010/CF) (human, UniProt Q9NPF7 20-189; P29460 23-328)
T6 construct: also called huIL-23
T6 sequence (looked up) 1: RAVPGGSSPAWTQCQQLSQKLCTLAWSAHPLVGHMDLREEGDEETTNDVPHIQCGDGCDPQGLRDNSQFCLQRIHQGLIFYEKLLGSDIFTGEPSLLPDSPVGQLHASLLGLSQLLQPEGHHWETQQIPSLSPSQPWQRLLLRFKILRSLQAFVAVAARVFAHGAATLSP
T6 sequence (looked up) 2: T4 sequence (looked up) 2

B1: XAB4 (antibody, human IgG1, kappa, V domains shown)
VH: EVQLVESGGDLVQPGGSLRLSCAASGFTFSSYWMSWVRQAPGKGLEWVANIKQDGSEKYYVDSVKGRFTISRDNAKNSLYLQMNSLRAEDTAVYYCARDRGSLYYWGQGTLVTVSS
VL: AIQLTQSPSSLSASVGDRVTITCRPSQGINWELAWYQQKPGKAPKLLIYDASSLEQGVPSRFSGSGSGTDFTLTISSLQPEDFATYYCQQFNSYPLTFGGGTKVEIKR
notes: also called MB435 N56Q
B2: XAB1 (antibody, human IgG1, kappa, V domains shown)
VH: B1 VH
VL: B1 VL with N30I, W31S, E32A, Q56N
notes: human IgG1/kappa monoclonal antibody; also called parental XAB1; XAB1 IgG

Tests used:
[1] = biological target: T1, recombinant human IL-17F (SEQ ID NO: 77); assay: ELISA, coated cytokine, Ab 10 µg/ml;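 note: antibodies incubated 3 h at room temperature on the coated wells, binding detected with alkaline phosphatase-conjugated anti-IgG secondary antibodies matching the species of each test antibody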
Description: (§1) The antibodies of the disclosure were added at 10 μg/ml (100 μl/well) for 3 h at room temperature. […] They were added at 1 or 5 μg/ml, in PBS, 0.02% NaN₃ for 3 h at RT.
(§2) Plates were then washed 4 times with PBS/0.05% Tween 20/0.02% NaN₃. Then, an alkaline phosphatase-conjugated goat anti-human IgG antibody (Sigma Cat# A9544) was added to the wells with human antibodies at a dilution of 1/20000 (100 μl/well). An alkaline phosphatase-conjugated goat anti-mouse IgG antibody (Sigma Cat# A1047) was added to the wells with mouse antibodies at a dilution of 1/10000 (100 μl/well). An alkaline phosphatase-conjugated rabbit anti-goat IgG antibody (Sigma Cat# A7650) was added to the wells with goat antibodies at a dilution of 1/1000 (100 μl/well) and an alkaline phosphatase-conjugated rabbit anti rat-IgG antibody (Sigma Cat# A6066) was added to the wells with rat antibodies at a dilution of 1/20000 (100 μl/well).

[2] = biological target: T7, recombinant human IL-1β (Novartis) (human, UniProt P01584 117-269); assay: ELISA, coated cytokine;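 note: antibodies incubated 3 h at room temperature on cytokine-coated plates, binding read out with alkaline phosphatase-conjugated anti-species IgG secondary antibodies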
T7 construct: also called huIL1β
Description: as §1, §2

[3] = biological target: T2, recombinant mouse IL-17F (R&D Systems …); assay: ELISA, coated cytokine;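 note: antibodies incubated 3 h at room temperature on cytokine-coated plates, binding read out with alkaline phosphatase-conjugated anti-species IgG secondary antibodies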
Description: as §1, §2

[4] = biological target: T3, recombinant human IL-3 (R&D Systems …); assay: ELISA, coated cytokine;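 note: antibodies incubated 3 h at room temperature on cytokine-coated plates, binding read out with alkaline phosphatase-conjugated anti-species IgG secondary antibodies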
Description: as §1, §2

[5] = biological target: T4, recombinant human IL-12 (R&D Systems …); assay: ELISA, coated cytokine;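 note: antibodies incubated 3 h at room temperature on cytokine-coated plates, binding read out with alkaline phosphatase-conjugated anti-species IgG secondary antibodies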
Description: as §1, §2

[6] = biological target: T5, recombinant mouse IL-12 (R&D Systems …); assay: ELISA, coated cytokine
Description: as §1, §2

[7] = biological target: T6, recombinant human IL-23 (R&D Systems …); assay: ELISA, coated cytokine
Description: as §1, §2

Row | Binder | O.D. [1] [O.D.] | binding result [2] | binding result [3] | binding result [4] | binding result [5] | binding result [6] | binding result [7]
1 | B1 | 0.035 | no binding (tested: 10 µg/ml) | no binding (tested: 10 µg/ml) | no binding (tested: 10 µg/ml) | no binding (tested: 10 µg/ml) | no binding (tested: 10 µg/ml) | 
2 | B2 |  |  |  |  |  |  | no binding (tested: 10 µg/ml)
